The target in this experiment is full length La Crosse virus L protein (RNA-dependent RNA polymerase) (La Crosse virus (strain LACV/mosquito/1978)) (UniProt A5HC98). The experiment is described as follows: crystal structure; LACV-L FL with 3' (1-16) and 5' (9-16) vRNA at 5 mg/ml, 5' (1-10) vRNA soaked in; 100 mM Tris pH 8.0, 100 mM NaCl, 8% PEG 4000; space group C2, 4.0 Å; two L protein complexes per asymmetric unit.

This is an account of results in article PMC7368059.

Usually stoichiometry N stands for a count of units in the complex or per binding partner. In turn, “full length La Crosse virus L protein (RNA-dependent RNA polymerase) (from UniProt A5HC98 1-2263) (enzyme)” gave a stoichiometry N of 2.
